Results published in patent publication US20180118848A1 (Regeneron, published 2018).

Tests used:
human MUC16 (mucin 16) [1] = molecular target: T1, human MUC16 (mucin 16) (human); assay: MSD ECL cell binding, RLU ratio OVCAR-3 vs SK-OV-3, 1.9 nM Ab
T1 construct: Endogenously expressed on human tumour cell lines; also called hMUC16
Method: (§1) The ability of anti-MUC16 antibodies to bind specifically to endogenously expressing MUC16 on the human ovarian carcinoma cell line (OVCAR-3) was evaluated via an electrochemiluminescence based detection assay (Meso Scale Discovery (MSD), Rockville, Md.). […] Detached cells were then washed once in 1×PBS supplemented with Ca²⁺/Mg²⁺ and counted (Cellometer Auto T4 cell counter, Nexcelom Bioscience, Lawrence, Mass.). Approximately 1.0×10⁴ cells were plated in MULTI-ARRAY 96-well carbon electrode plates (MSD) and incubated for 1 h at 37° C. […] Next, serial dilutions of anti-MUC16 or control antibodies (0.85 pM-50 nM) and no-antibody buffer controls were added to the plate-bound cells and incubated for 1 h at room temperature (RT). Plates were then washed to remove the unbound antibodies using an AquaMax2000 plate washer (MDS Analytical Technologies, Sunnyvale, Calif.). Plate-bound antibodies were detected with a SULFO-TAG™-conjugated anti-human kappa light chain antibody (Regeneron) or a SULFO-TAG™-conjugated anti-mouse IgG antibody (Jackson Immunoresearch, West Grove, Pa.) for 1 h at RT. Post-wash, plates were developed with Read Buffer (MSD) according to manufacturer's protocol and luminescent signals were recorded with a SECTOR Imager 6000 (MSD) instrument.
(§2) Luminescence intensity, measured in relative light units (RLU), for the two cell lines was recorded to indicate the binding intensity of each antibody.

human MUC16 (mucin 16) [2] = molecular target: T1, human MUC16 (mucin 16); assay: MSD ECL cell binding, RLU ratio OVCAR-3 vs SK-OV-3, 16.7 nM Ab
Method: as §1, §2

| Ratio anti-MUC16 Binding OVCAR-3/SK-OV-3 (human MUC16 (mucin 16) [1]) [ratio] | Ratio anti-MUC16 Binding OVCAR-3/SK-OV-3 (human MUC16 (mucin 16) [2]) [ratio] | Binder |
| --- | --- | --- |
| 8 | 3 | H1H8790P (antibody, human IgG1, V domains shown, Human IgG1) VH: EVQLVESGGGLVQPGGSLRLSCEASGFTFSNYAMSWVRQAPGKGLEWVSGMSGSGTYPYYADSVKGRFTISRDNSKNMLYLQMNSLRVKDTAVYYCAKDGVDTAMILDTFDLWGQGTMVTVSS VL: not shown |
| 81 | 57 | H3M9524N (antibody, mouse IgG3, V domains shown, Human variable regions, mouse IgG3 constant region) VH: QVQLQQWGAGLLKPSETLSLTCAVYGGSFSDYYWSWIRQPPGKGLEWIGEINHRGKTNYNPSLKSRVSISVDPSKNQFSLKLSSVTAADTAVYYCARQGWNYAIFDYWGQGILVPVSS VL: not shown |
| 4 | 21 | H1H9525N (antibody, human IgG1, V domains shown, Human IgG1 form of H3M9525N) VH: QVQLQQWGAGLLKPSETLSLTCAVYGGSFSGYYWSWIRQPPGKGLEWIGEINHSGKTTYSPSLKSRVTISVDTSKSQFSLKLSSVTAADTAVYYCARQGLNYAIFDYWGQGTLVTVSS VL: not shown |
| 20 | 48 | H1H9524N (antibody, human IgG1, V domains shown, Human IgG1 form of H3M9524N) VH: QVQLQQWGAGLLKPSETLSLTCAVYGGSFSDYYWSWIRQPPGKGLEWIGEINHRGKTNYNPSLKSRVSISVDPSKNQFSLKLSSVTAADTAVYYCARQGWNYAIFDYWGQGILVPVSS VL: not shown |
| 137 | 51 | H3M9525N (antibody, mouse IgG3, V domains shown, Human variable regions, mouse IgG3 constant region) VH: QVQLQQWGAGLLKPSETLSLTCAVYGGSFSGYYWSWIRQPPGKGLEWIGEINHSGKTTYSPSLKSRVTISVDTSKSQFSLKLSSVTAADTAVYYCARQGLNYAIFDYWGQGTLVTVSS VL: not shown |
| 89 | 26 | H2M9538N (antibody, V domains shown) VH: QVQLQESGPGLVKPSETLSLTCTVSGGSISSYYWSWIRQPPGKGLEWIGYIYYSGSTNYNPSLKSRVTISVDTSKNQFSLKLSSVTAADTAVYYCARKKLVFDYWGQGTLVTVSS VL: not shown |
| 12 | 13 | H1H9538N (antibody, V domains shown) VH: QVQLQESGPGLVKPSETLSLTCTVSGGSISSYYWSWIRQPPGKGLEWIGYIYYSGSTNYNPSLKSRVTISVDTSKNQFSLKLSSVTAADTAVYYCARKKLVFDYWGQGTLVTVSS VL: not shown |
| 143 | 99 | H3M9529N (antibody, mouse IgG3, V domains shown, Human variable regions, mouse IgG3 constant region) VH: QVQLQQWGAGLLKPSETLSLTCAVYGGSFSGFYWSWIRQPPGKGLEWIGEINHSGSAKYNPSLKNRVIISIDTSKNQFSLKLDSVTAADTAVYNCARQGWNFAIFDYWGQGTLVDVSS VL: DIVMTQSPDSLAVSLGGRATINCKSSQSVLHSSYNKDHLAWYQQRPGQPPKLLIYWASTRESGVPDRFSGSGSGTDFTLTISSLQAEDVAVYYCQQYNILPPTFGQGTRVEIK |
| 109 | 74 | H1H9529N (antibody, human IgG1, V domains shown, Human IgG1 form of H3M9529N) VH: QVQLQQWGAGLLKPSETLSLTCAVYGGSFSGFYWSWIRQPPGKGLEWIGEINHSGSAKYNPSLKNRVIISIDTSKNQFSLKLDSVTAADTAVYNCARQGWNFAIFDYWGQGTLVDVSS VL: DIVMTQSPDSLAVSLGGRATINCKSSQSVLHSSYNKDHLAWYQQRPGQPPKLLIYWASTRESGVPDRFSGSGSGTDFTLTISSLQAEDVAVYYCQQYNILPPTFGQGTRVEIK |
| 13 | 5 | H1H8755P (antibody, human IgG1, V domains shown, Human IgG1 (H1H: hIgG1)) VH: EVQLVESGGGLVQPGRSLRLSCAASGFTFNDYAMHWVRQSPGKGLEWVSGIDWNGGSIDYADSVKGRFTISRDTAKNSLYLQMNSLKVEDTALYYCAKDIGHWNYIGGMDVWGQGTTVTVSS VL: DIQMTQSPSSLSASVGDRVTITCRASQSINIYLNWYQQKPGKAPKFLIYAASSLQTGVPSRFSGSGSGTDFTLTISSLEPEDFATYYCQHSYSTPPITFGQGTRLEIK |
| 8 | 3 | H1H8794P (antibody, V domains shown, Human IgG1) VH: QVQLVESGGGLVKPGGSLRLSCAASGFTFRDYSMSWIRQAPGKGLEWVSYVTFFNSAIYYADSVKGRFTISRDNAKNSLYLQMNSLRAEDTAVYYCAREREPIVGGFDYWGQGTLVTVSS VL: DIQMTQSPSSLSASVGDRVTITCRASQSINSYLNWYQQKPGKAPKLLIYAASSLQGGVPSRFSGGGSGTDFTLTITSLQPEDFATFYCQQSYSSPPITFGQGTRLEIK |
| 153 | 120 | H1M9528N (antibody, mouse IgG1, V domains shown, Human variable regions, mouse IgG1 constant region) VH: QMQLQESGPGLVKPSETLSLTCTVSGGSISSYYWNWIRQPPGKGLEWIGYIYYSGNNFNPSLKSRVTISVDTSKNQFSLKLSSVTAADTAVYYCARAFHWNYEFDYWGQGTLVTVSS VL: EIVLTQSPGTLSLSPGERATLSCRASQSVSNNYLAWYQQKPGQAPRLLLYGASSRTTDIPDRFSGSGSGTDFTLTISRLEPEDFAVYYCQQYDNSPLTFGGGTKVEIR |
| 41 | 18 | H1H9528N (antibody, human IgG1, V domains shown, Human IgG1 form of H1M9528N) VH: QMQLQESGPGLVKPSETLSLTCTVSGGSISSYYWNWIRQPPGKGLEWIGYIYYSGNNFNPSLKSRVTISVDTSKNQFSLKLSSVTAADTAVYYCARAFHWNYEFDYWGQGTLVTVSS VL: EIVLTQSPGTLSLSPGERATLSCRASQSVSNNYLAWYQQKPGQAPRLLLYGASSRTTDIPDRFSGSGSGTDFTLTISRLEPEDFAVYYCQQYDNSPLTFGGGTKVEIR |
| 77 | 29 | H1M7137N (antibody, mouse IgG1, V domains shown, Human variable regions, mouse IgG1 constant region) VH: QVQLQESGPGLVKPSETLSLTCTVSGGAINTYYWSWIRQPPGKGLEWIGYIYYRGNTNYNPSLRSRVTISVDTSKNQFFLKLRSVTVADSAVYFCARGWNYRAEYFQHWGQGTVVTVSS VL: not shown |
| 30 | 5 | H2M7135N (antibody, mouse IgG2, V domains shown, Human variable regions, mouse IgG2 constant region) VH: EVQLVESGGGLVQAGGSLRLSCAASGFTFSYHEMNWVRQAPGKGLEWVSYIGSRGTTKHYADPVKGRFTISRDNAKNSLYLQMNSLRAEDTAVYYCASEVGSILGYSMDVWGQGTTVTVSS VL: DIQMTQSPSSLSASVGDRVTITCRASQSVSRYLNWCQQKPGKAPKLLTYAASSLQSGVPSRFSGSGSGTDFTLTISSLQPEDFAAYFCQQSYSTPPITFGQGTRLEIK |
| 9 | 3 | H1H8770P (antibody, human IgG1, V domains shown, Human IgG1) VH: QVQLVESGGGVVQPGRSLRLSCAASGFTFSDHGMHWVRQAPGKGLEWVAVISYHGSNKHYADSVKGRFTISRDNSKNALYLQMNSLRPEDTAMYYCAKDGYDFWNGYSLFDYWGQGTLVTVSS VL: DIQMTQSPSSLSASVGDRVTITCRASQSISNYLNWYQQKPGKAPKLLIYTASNLLSGVPSRFSGSGSGTDFTLTISSLQPEDFATYYCQQSYSTPPITFGQGTKLEIK |
| 11 | 4 | H1H8783P (antibody, human IgG1, V domains shown, Human IgG1) VH: QVQLVESGGGVVQPGRSLRLSCAASGFTFSDHAMHWVRQAPGKGLEWVAVISYHGTDKQYGDSVKGRFTISRDNSKNALYLQMNSLRPEDTAMYYCAKDGYDFWNAYSLFDYWGQGTLVTVSS VL: DIQMTQSPSSLSASVGDRVTITCRASQSISNYLNWYQQKPGKAPKLLIYTASSLLSGVPSRFSGSGSGTDFTLTISSLQPEDFATYYCQQSYSTPPITFGQGTRLEIK |
| 82 | 50 | H2M7138N (antibody, mouse IgG2, V domains shown, Human variable regions, mouse IgG2 constant region; also called H2aM7138N) VH: QVQLVQSGAEVKKPGASVKVSCKASGYTFTSSDINWVRQATGQGLEWVGWMNPNYGYTGSARKFQDRVTMTRNTSLSTAYLELHSLRSEDTAVYYCARVTYCSSVTSCFRPFTYWGQGTLVTVSA VL: not shown |
